Literature values in article PMC4788383.
pKd: −log10 of the molar value. Where two headings read alike, the source gives them in different places.

Legend:
[1] = target: RNA polymerase II CTD peptide CTD (Homo sapiens) (UniProt P24928)
[2] = target: RNA polymerase II CTD peptide CTD (Homo sapiens) (UniProt P24928); remark: listed apart in the source

Pin1 (from UniProt Q13526)
pKd [1]: 4.52
pKd [2]: 4.21
